T1: OV064(32-282) expressed on transfected ES-2 ovarian carcinoma cells (human, UniProt Q7Z7D3 32-282)
T1 sequence: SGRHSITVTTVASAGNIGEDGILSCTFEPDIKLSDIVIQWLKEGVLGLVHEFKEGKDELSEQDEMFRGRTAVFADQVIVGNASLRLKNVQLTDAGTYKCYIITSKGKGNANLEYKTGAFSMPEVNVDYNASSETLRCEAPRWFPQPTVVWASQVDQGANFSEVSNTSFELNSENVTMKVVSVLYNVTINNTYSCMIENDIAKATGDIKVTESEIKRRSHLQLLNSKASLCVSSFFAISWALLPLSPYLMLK

T2: OV064 peptide 157-176 (human)
T2 construct: 20-mer synthetic peptide on nitrocellulose; also called OV064 AA 157-176
T2 peptide: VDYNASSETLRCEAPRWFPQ

T3: OV064 peptide 172-191 (human)
T3 construct: 20-mer synthetic peptide on nitrocellulose; also called OV064 AA 172-191
T3 peptide: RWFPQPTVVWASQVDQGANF

T4: OV064 peptide 162-181 (human)
T4 construct: 20-mer synthetic peptide on nitrocellulose; also called OV064 AA 162-181
T4 peptide: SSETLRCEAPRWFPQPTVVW

T5: OV064 peptide 167-186 (human)
T5 construct: 20-mer synthetic peptide on nitrocellulose; also called OV064 AA 167-186
T5 peptide: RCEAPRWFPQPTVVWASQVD

T6: OV064 peptide 237-256 (human)
T6 construct: 20-mer synthetic peptide on nitrocellulose; also called OV064 AA 237-256
T6 peptide: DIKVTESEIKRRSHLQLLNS

T7: OV064 peptide 238-257 (human)
T7 construct: 20-mer synthetic peptide on nitrocellulose; also called OV064 AA 238-257
T7 peptide: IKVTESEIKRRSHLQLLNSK

T8: OV064 peptide 177-196 (human)
T8 construct: 20-mer synthetic peptide on nitrocellulose; also called OV064 AA 177-196
T8 peptide: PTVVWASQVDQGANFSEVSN

B1: human monoclonal antibody mAb sc77 (antibody, human IgG1, kappa, V domains shown)
VH: QVQLVESGGGVVQPGRSLRLSCAASGFTFSSYGMHWVRQAPGKGLEWVAVIWYDGNNKYYADSVKGRFTISRDNSKNTLYLQMNSLRAEDTAVYYCARTSGIAAFDYWGQGTLVTVSS
VL: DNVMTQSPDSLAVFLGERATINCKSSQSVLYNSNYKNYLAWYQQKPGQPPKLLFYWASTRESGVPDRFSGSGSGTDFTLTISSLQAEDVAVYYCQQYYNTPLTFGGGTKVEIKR
notes: Human IgG1 kappa; also called sc077; Ov64sc77
B2: human monoclonal antibody mAb sc189 (antibody, human IgG1, kappa, V domains shown)
VH: EVQLVESGGGLVQPGGSLRLSCAASGFSFSSYDMHWVRQATGKGLEWVSGIDIAGDTYYPGSVKGRFTISRENAKNSLYLQMNSLRAGDTAVYYCARGDYDGTFDYWGQGTLVTVSS
VL: DIVMTQTPLSSPVTLGQPASISCRSSQSLVHSDGNTYLSWLQQRPGQPLRLLFYKISNRFSGVPDRFSGSGAGTDFTLIINRVEAEDVGVYYCMHATQFPITFGQGTRLEIKR
notes: Human IgG1 kappa; also called Ov64sc189
B3: human monoclonal antibody mAb sc209 (antibody, human IgG1, kappa, V domains shown)
VH: GVQLVESGGGLVQPGGSLRLSCAASGFTISRNDMHWVRQATGKGLEWVSAIGTGGDTYYPGSVKGRFTISRENAKNSLYLQMNSLRAGDTAVYYCARGHMTTFGGFIVIGNGMDVWGQGTTVTVSS
VL: not shown
notes: Human IgG1 kappa; also called Ov64sc209

Columns and labels:
[1] = molecular target: T1, OV064(32-282) expressed on transfected …; assay: cell-based or functional assay
OV064 peptide 157-176 = molecular target: T2, OV064 peptide 157-176; assay: peptide array (20-mer on nitrocellulose)
Description: (§1) Epitope mapping. A variety of techniques are available to determine epitopes specific for any particular antibody. For example, constructs of OV064 truncations were generated in a pCMV3 vector. Constructs representing amino acids 32-282, 133-282, 167-282 and 183-282 of the OV064 protein sequence were generated as N-terminally FLAG tagged proteins that when transfected into 293 cells, will be expressed on the cell surface. OV064 specific antibodies sc077, sc189, sc209 an 8G5 were tested for binding to these expressed constructs by flow cytometry, as described above. Furthermore, epitopes were analyzed using the Novatope system (Novagen Inc). Briefly, OV064 cDNA was treated with DNAse and fragments representing 15-600 bp were cloned into a bacterial expression vector. Each mAb was tested against 2000 clones representing OV064 fragments and each positive clone was picked and sequenced. The minimal common sequence between each of these clones was designated as the epitope to which each antibody bound. Additionally, a synthetic peptide map was utilized for identifying anti-OV064 epitopes. Briefly, 20 amino acid peptides each overlapping with 15 amino acids were printed on a nitrocellulose filter and incubated with anti-OV064 specific antibodies. Peptide spots that reacted strongly with the OV064 specific antibodies indicated the presence of an OV064 epitope.
(§2) As described above in the methods, various approaches to determine epitope mapping of OV064 specific mAbs were used. […] The other methods confirmed the results depicted in Table 5.

OV064 peptide 172-191 = molecular target: T3, OV064 peptide 172-191; assay: peptide array (20-mer on nitrocellulose)
Description: as §1, §2

OV064 peptide 162-181 = molecular target: T4, OV064 peptide 162-181; assay: peptide array (20-mer on nitrocellulose)
Description: as §1, §2

OV064 peptide 167-186 = molecular target: T5, OV064 peptide 167-186; assay: peptide array (20-mer on nitrocellulose)
Description: as §1, §2

[2] = molecular target: T1, OV064(32-282) expressed on transfected …; assay: flow cytometry on OV064 expressing cells
Description: Analysis of mAb by flow cytometry. 50,000-100,000 test cells were prepared in 100 ul phosphate buffered saline+1% fetal bovine serum (PBSS). 50 ul of test reagent (either hybridoma supernatants, mouse serum or purified mAb) was added, and incubated 30-45 min on ice, then washed 2-3 times in PBSS. 50 ul of fluorescently labeled secondary antibody (Anti-Mouse IgG or Anti-Human IgG) was then added, and incubated 30-45 minutes on ice and washed. The cells were then resuspended in 300 ul of PBSS and analyzed by flow cytometer (FACSCalibur, Becton Dickinson) to assess amount of cell surface bound antibody.
Each human mAb (mAb sc77, mAb sc189, and mAb sc209) bound purified recombinant OV064-His fusion protein in ELISA analysis.

OV064 peptide 237-256 = molecular target: T6, OV064 peptide 237-256; assay: peptide array (20-mer on nitrocellulose)
Description: as §1, §2

OV064 peptide 238-257 = molecular target: T7, OV064 peptide 238-257; assay: peptide array (20-mer on nitrocellulose)
Description: as §1, §2

OV064 peptide 177-196 = molecular target: T8, OV064 peptide 177-196; assay: peptide array (20-mer on nitrocellulose)
Description: as §1, §2

Row | Binder | ICA (EC50) [1] | binding result (OV064 peptide 157-176) | binding result (OV064 peptide 172-191) | binding result (OV064 peptide 162-181) | binding result (OV064 peptide 167-186) | FCM (MFI max) [2] | binding result (OV064 peptide 237-256) | binding result (OV064 peptide 238-257) | binding result (OV064 peptide 177-196)
1 | B1 | 0.123 nM | binds | binds | binds | binds | 780 MFI | – | – | –
2 | B2 | 0.06 nM | – | – | – | – | 820 MFI | binds | binds | –
3 | B3 | 0.053 nM | binds | binds | binds | binds | 700 MFI | – | – | binds
